Here are results for three molecules from patent US6894149 (PROTEIN DESIGN LABS, dated 2005).

Assay [1] concerns the target HLA-DR on solid tumor cell lines C32, HT-144 (melanoma) and OVCAR-5 (ovarian) (human). The assay can be described thus: cell-based or functional assay.
Assay [2] deals with HLA-DR on solid tumor cell lines C32, HT-144 (melanoma) and OVCAR-5 (ovarian) (human, UniProt P01903 26-254; P01911 30-266). The assay can be described thus: cell-based or functional assay.

In assay [1], 1D10 (antibody) showed a specific cell death in C32 and HT-144 cells, 24 hour assay, 10 µg/ml of 5 to 15%. Same read-out and setting: for “L227 (anti-HLA-DR β, ATCC HB-96) (antibody)” the value was 40%.

B1: K8-355 (antibody, mouse IgG1, V domains shown)
VH: QIQLVQSGPELKKPGETVKISCKASKYTFTNYGMNWVKQAPGKVLRWMGWINTYTGEPTYADDFKGRFAFSLETSASTAYLQINNLKNEDMATYFCATTTLITYYFDYWGQGTTLTVSS
VL: DIQMTQTTSSLSASLGDRVTISCRSSQDISKYLNWYQQKPDGTVKLLIYYTSRLHSGVPSRFSGSGSGTDYSLTISNLEQEDIATYFCQQGDTVPWTFGGGTKLEIK
With B1, the “specific cell death in C32 and HT-144 cells, 24 hour assay, 10 µg/ml” value in assay [2] is roughly 40%.
